Results reported in patent US20240141072A1 (published 2024).
Positions count from the first letter of the chain named.

T1: biotinylated human DLL3 protein expressed as a human IgG1 fusion protein (human, UniProt Q9NYJ7 27-492, limits assumed, biotinylated)
T1 sequence: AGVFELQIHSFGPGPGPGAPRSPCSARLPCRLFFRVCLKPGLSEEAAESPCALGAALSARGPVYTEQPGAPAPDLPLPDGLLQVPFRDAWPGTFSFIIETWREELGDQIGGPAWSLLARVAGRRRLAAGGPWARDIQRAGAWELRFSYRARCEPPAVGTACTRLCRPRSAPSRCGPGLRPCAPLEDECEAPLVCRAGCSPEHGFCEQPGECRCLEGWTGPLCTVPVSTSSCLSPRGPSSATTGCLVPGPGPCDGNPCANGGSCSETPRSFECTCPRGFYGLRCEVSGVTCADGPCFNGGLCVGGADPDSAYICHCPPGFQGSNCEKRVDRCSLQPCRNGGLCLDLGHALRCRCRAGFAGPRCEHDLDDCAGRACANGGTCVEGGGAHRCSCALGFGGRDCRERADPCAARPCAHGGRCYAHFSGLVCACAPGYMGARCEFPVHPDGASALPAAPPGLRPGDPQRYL

T2: cynomolgus DLL3 (cynomolgus, UniProt A0A2K5WSR1 27-490)
T2 construct: also called cyDLL3
T2 sequence: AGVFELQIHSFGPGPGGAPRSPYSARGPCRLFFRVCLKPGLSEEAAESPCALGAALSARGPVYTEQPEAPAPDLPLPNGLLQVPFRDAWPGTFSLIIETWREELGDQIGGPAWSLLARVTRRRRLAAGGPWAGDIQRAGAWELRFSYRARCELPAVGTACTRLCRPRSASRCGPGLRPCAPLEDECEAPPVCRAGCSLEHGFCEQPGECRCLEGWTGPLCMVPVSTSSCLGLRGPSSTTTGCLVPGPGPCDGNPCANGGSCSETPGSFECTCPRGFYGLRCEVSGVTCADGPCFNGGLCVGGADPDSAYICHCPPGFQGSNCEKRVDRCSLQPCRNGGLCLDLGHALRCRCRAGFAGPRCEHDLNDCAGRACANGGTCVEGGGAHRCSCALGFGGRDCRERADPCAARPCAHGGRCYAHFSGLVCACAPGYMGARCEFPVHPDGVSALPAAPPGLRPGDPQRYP

T3: human DLL3 on DLL3-expressing tumor cell lines (human, UniProt Q9NYJ7 27-618)
T3 sequence: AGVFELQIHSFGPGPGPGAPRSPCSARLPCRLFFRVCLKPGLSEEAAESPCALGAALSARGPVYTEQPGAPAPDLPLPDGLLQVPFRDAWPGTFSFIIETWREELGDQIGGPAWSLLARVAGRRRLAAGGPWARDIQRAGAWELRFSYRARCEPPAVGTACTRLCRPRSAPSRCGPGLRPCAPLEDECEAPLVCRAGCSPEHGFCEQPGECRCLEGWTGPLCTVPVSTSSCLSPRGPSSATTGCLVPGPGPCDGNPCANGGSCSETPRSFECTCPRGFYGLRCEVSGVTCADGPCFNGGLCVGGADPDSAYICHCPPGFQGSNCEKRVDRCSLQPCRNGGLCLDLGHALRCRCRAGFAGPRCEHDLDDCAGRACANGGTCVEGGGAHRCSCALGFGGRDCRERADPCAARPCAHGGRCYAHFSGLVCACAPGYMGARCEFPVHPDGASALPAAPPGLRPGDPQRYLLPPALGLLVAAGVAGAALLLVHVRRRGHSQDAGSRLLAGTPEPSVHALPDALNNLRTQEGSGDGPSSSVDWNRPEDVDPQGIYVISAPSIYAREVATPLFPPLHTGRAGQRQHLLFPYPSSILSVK

B1: 2E01 anti-DLL3 trispecific protein (other)
chain: EVQLVESGGGLVQPGGSLTLSCVASGSTSSINAMGWYRRAPFKQGELPAGISPDGTKAYADSAKVRFTISRDNAKNSVYLQMNSLRAEDTAVYYCYYFHTVCGTSMGYWGQGTLVTVSS
notes: not shown: linker 1808, anti-albumin sdAb, linker 1808, anti-CD3 fragment, His6 1819
B2: 3A02 anti-DLL3 trispecific protein (other)
chain: EVQLVESGGGLVQPGGSLTLSCAASGSSVSFLSLAWYRQAPGKKRELVAGISADGSTAYIDSVKGRFTISRDNAKNSVYLQMNSLRAEDTAVYYCYAYRWRTRYTYWGQGTLVTVSS
notes: as for B1
B3: 3A011 anti-DLL3 trispecific protein (other)
chain: B2 chain with A53T, A58D
notes: as for B1
B4: 4E02 anti-DLL3 trispecific protein (other)
chain: B2 chain with S28Q, L34M, A58V, R101S
notes: as for B1
B5: 4B011 anti-DLL3 trispecific protein (other)
chain: B2 chain with S30T, L34M, A58V, R101T, Y104G
notes: as for B1
B6: 4H07 anti-DLL3 trispecific protein (other)
chain: B2 chain with S27R, L34M, D54N, A58D, R101S
notes: as for B1
B7: 4H05 anti-DLL3 trispecific protein (other)
chain: B2 chain with F31R, L34M, D54R, A58D, R101T, Y104S
notes: as for B1
B8: 3H06 anti-DLL3 trispecific protein (other)
chain: B2 chain with F31Q, L34M, A58D, I60F, R101T, Y104G
notes: as for B1
B9: 4H09 anti-DLL3 trispecific protein (other)
chain: B2 chain with F31K, L34M, A58D, I60R, R101T, T102Y
notes: as for B1
B10: 3H011 anti-DLL3 trispecific protein (other)
chain: B2 chain with S30K, L34M, A58V, R101P
notes: as for B1
B11: 4B07 anti-DLL3 trispecific protein (other)
chain: B2 chain with S30G, L34M, A58V, R101T
notes: as for B1
B12: 4H04 anti-DLL3 trispecific protein (other)
chain: B2 chain with S30K, L34M, I51V, A58D, R99E, R101T
notes: as for B1
B13: 4H011 anti-DLL3 trispecific protein (other)
chain: B2 chain with F31R, L34M, A53V, A58D, R101T, Y104L
notes: also called 4H11; not shown: linker 1808, anti-albumin sdAb, linker 1808, anti-CD3 fragment, His6 1819
B14: 4C06 anti-DLL3 trispecific protein (other)
chain: B2 chain with G26N, F31K, L34M, R101S
notes: as for B1
B15: 3C04 anti-DLL3 trispecific protein (other)
chain: B2 chain with S28H, L34M, S56P, A58D, R101D
notes: as for B1
B16: 3D07 anti-DLL3 trispecific protein (other)
chain: B2 chain with S30R, L34M, A58D, R99S, R101T
notes: as for B1
B17: 4H06 anti-DLL3 trispecific protein (other)
chain: B2 chain with S27R, L34M, A58I, R101T
notes: as for B1
B18: 4D011 anti-DLL3 trispecific protein (other)
chain: B2 chain with S30R, L34M, A53V, A58D
notes: also called 4D11; not shown: linker 1808, anti-albumin sdAb, linker 1808, anti-CD3 fragment, His6 1819
B19: 4H08 anti-DLL3 trispecific protein (other)
chain: B2 chain with S30K, L34M, A58D, I60V, R101S
notes: as for B1
B20: 4D09 anti-DLL3 trispecific protein (other)
chain: B2 chain with S30K, L34M, A58D, D61L, R99E, R101T
notes: as for B1
B21: 1A011 anti-DLL3 trispecific protein (other)
chain: EVQLVESGGGLVQPGGSLTLSCVASGSTSSINAIGWYRRAPGKQRELVAGISSDGSKVYIDSVKGRFTISRDNAKNSVYLQMNSLRAEDTAVYYCYYFRTVSGSSYRYWGQGTLVTVSS
notes: also called 1A11; not shown: linker 1808, anti-albumin sdAb, linker 1808, anti-CD3 fragment, His6 1819
B22: 1C03 anti-DLL3 trispecific protein (other)
chain: B21 chain with I34M, G35A, G55N, I60A, S102G, Y106M
notes: as for B1
B23: 2E05 anti-DLL3 trispecific protein (other)
chain: B21 chain with T28P, I34Y, I60S, Y106M, R107S
notes: as for B1
B24: 2A04 anti-DLL3 trispecific protein (other)
chain: B21 chain with I34M, G35A, I60T, V101T, Y106M
notes: as for B1
B25: 2E011 anti-DLL3 trispecific protein (other)
chain: B21 chain with K57S, I60A, T100R, Y106M
notes: as for B1
B26: 2E010 anti-DLL3 trispecific protein (other)
chain: B21 chain with I34M, G35A, I60A, R99H, Y106M
notes: as for B1
B27: 2E02 anti-DLL3 trispecific protein (other)
chain: B21 chain with S30A, I34M, I60V, Y106Q
notes: as for B1
B28: 2H02 anti-DLL3 trispecific protein (other)
chain: B21 chain with I34M, G35A, V48A, I60A, R99H, Y106M
notes: as for B1
B29: 2C04 anti-DLL3 trispecific protein (other)
chain: B21 chain with I31R, I34M, V58L, I60A, S102L, Y106M
notes: as for B1

Target: T1, biotinylated human DLL3 protein …
Assay: Octet BLI, single 50 nM
Procedure, shortened: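 Anti-DLL3 trispecific proteins were tested directly from conditioned medium in which their concentrations were known. The tip-captured DLL3 fusion served as the immobilised partner, and binding affinity toward human DLL3 was determined from the Octet measurement.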

Kd [nM] | Binder
4.1 | B1
8.1 | B2
6.8 | B3
3.8 | B4
3.9 | B5
16 | B6
64 | B7
8 | B8
16 | B9
2.7 | B10
4.3 | B11
6.1 | B12
4.5 | B13
6.8 | B14
4.5 | B15
5.9 | B16
18 | B17
5.8 | B18
8.9 | B19
4.7 | B20
3.7 | B21
6.1 | B22
3.9 | B23
5.6 | B24
2.4 | B25
4 | B26
6 | B27
4.4 | B28
6.8 | B29

Target: T2, cynomolgus DLL3
Assay: Octet BLI, single 60 nM

Kd [nM] | Binder
9.5 | B2
8.8 | B3
5.7 | B13
5.7 | B15
8.2 | B20
3.6 | B21
4.8 | B23
3.4 | B27
5.2 | B28

Target: T3, human DLL3 on DLL3-expressing tumor …
Assay: cell-based or functional assay

DMS-153 TDCC EC50 [pM] | Binder
98 | B18
60 | B20
170 | B21
72 | B23
120 | B27
96 | B28
43 | B29

Target: T3, human DLL3 on DLL3-expressing tumor …
Assay: cell-based or functional assay
Remark: another data set of the same source

DMS-153 TDCC EC50 [pM] | Binder
33 | B1
41 | B4
48 | B5
120 | B8
120 | B10
67 | B11
51 | B12
36 | B13
68 | B14
52 | B15
61 | B16
52 | B20
51 | B21
96 | B22
33 | B23
81 | B24
190 | B25
31 | B26
59 | B27
31 | B28

Target: T3, human DLL3 on DLL3-expressing tumor …
Assay: cell-based or functional assay
Remark: another data set of the same source

fold increase in TDCC potency compared to the parental DLL3 binder molecule (DH6) [fold] | Binder
> 8 | B13

Target: T1, biotinylated human DLL3 protein …
Assay: Octet BLI, 60/20/6.67/2.22 nM
Experimental: Using the conditioned medium with known concentrations of the anti-DLL3 trispecific proteins, the binding affinities of the anti-DLL3 trispecific proteins toward human DLL3 protein were measured using a method where biotinylated version of human DLL3 protein were expressed as a human IgG1 fusion protein, and the binding affinity measurement was carried out in an Octet instrument with streptavidin tips.

Kd [nM] | Binder
7.8 | B2
7.3 | B3
3.9 | B13
4 | B15
8.1 | B20
3.5 | B21
3.5 | B23
4.4 | B27
4.4 | B28
